{"source": "patent US20160146827", "key": {"[1]": {"test_system": "Venus-thrombin-LUMP (LUMP fused to Venus via an 11-residue linker ASLVPRGSRGS that harbors a thrombin cleavage site)"}, "[2]": {"test_system": "mRuby-thrombin-fLov2 (fLov2 fused to mRuby via an 11-residue linker ASLVPRGSRGS that harbors a thrombin cleavage site)"}}}
{"substance": "thrombin protease", "values": [{"measurement": "FA value of LUMP in the intact substrate", "setting": "[1]", "value": "FA values for the 51-kDa LUMP-Venus substrate of 0.255±0.003"}, {"measurement": "FA value of LUMP in the proteolyzed sensor", "setting": "[1]", "value": "decreases to 0.166±0.001 in the proteolyzed sensor"}, {"measurement": "donor/acceptor ratio of fluorescence emission during proteolysis", "setting": "[1]", "value": "donor/acceptor ratio increasing ~4.7-fold"}, {"measurement": "fluorescence emission spectra against time after addition of thrombin", "setting": "[2]", "value": "dramatic increase in fLov2 fluorescence and attenuation of the sensitized mRuby fluorescence"}]}
